Test results taken from patent US20240261333A1 (published 2024).
Each block holds one binder with its values, some of them ahead of it.

Legend:
Experiment in all cases: co-IP with anti-FLAG, N-FLAG B3GNT2, mass spectrometry
[1] = biological target: T1, IMMT (human, UniProt Q16891-4 34-757, limits assumed)
T1 construct: also called NP_001093639.1 (+3)
T1 sequence (looked up): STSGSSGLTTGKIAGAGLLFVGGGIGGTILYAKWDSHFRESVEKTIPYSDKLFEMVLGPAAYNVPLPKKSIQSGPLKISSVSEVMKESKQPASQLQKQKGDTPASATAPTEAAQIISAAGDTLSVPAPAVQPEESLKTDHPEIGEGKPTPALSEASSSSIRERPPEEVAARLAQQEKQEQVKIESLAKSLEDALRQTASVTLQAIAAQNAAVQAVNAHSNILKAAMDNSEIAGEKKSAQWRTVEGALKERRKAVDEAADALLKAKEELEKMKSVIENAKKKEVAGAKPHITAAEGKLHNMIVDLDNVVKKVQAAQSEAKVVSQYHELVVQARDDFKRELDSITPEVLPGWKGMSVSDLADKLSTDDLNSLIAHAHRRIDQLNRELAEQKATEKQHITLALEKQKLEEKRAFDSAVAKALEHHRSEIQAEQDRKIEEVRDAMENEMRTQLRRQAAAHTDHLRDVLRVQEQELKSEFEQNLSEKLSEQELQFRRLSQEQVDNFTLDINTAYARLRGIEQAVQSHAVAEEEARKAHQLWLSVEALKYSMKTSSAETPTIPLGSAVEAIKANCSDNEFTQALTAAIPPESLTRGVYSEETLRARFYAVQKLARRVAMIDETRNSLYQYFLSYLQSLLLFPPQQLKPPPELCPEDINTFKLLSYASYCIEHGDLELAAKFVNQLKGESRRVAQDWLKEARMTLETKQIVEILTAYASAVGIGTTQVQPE

[2] = biological target: T2, CALML5 (human, UniProt Q9NZT1 2-146)
T2 construct: also called NP_059118.2
T2 sequence (looked up): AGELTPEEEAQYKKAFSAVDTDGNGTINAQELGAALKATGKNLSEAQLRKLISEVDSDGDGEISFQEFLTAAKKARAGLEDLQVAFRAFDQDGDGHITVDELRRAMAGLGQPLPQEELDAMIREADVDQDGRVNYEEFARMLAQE

[3] = biological target: T3, JUP (human, UniProt P14923 1-745)
T3 construct: also called NP_001339702.1
T3 sequence (looked up): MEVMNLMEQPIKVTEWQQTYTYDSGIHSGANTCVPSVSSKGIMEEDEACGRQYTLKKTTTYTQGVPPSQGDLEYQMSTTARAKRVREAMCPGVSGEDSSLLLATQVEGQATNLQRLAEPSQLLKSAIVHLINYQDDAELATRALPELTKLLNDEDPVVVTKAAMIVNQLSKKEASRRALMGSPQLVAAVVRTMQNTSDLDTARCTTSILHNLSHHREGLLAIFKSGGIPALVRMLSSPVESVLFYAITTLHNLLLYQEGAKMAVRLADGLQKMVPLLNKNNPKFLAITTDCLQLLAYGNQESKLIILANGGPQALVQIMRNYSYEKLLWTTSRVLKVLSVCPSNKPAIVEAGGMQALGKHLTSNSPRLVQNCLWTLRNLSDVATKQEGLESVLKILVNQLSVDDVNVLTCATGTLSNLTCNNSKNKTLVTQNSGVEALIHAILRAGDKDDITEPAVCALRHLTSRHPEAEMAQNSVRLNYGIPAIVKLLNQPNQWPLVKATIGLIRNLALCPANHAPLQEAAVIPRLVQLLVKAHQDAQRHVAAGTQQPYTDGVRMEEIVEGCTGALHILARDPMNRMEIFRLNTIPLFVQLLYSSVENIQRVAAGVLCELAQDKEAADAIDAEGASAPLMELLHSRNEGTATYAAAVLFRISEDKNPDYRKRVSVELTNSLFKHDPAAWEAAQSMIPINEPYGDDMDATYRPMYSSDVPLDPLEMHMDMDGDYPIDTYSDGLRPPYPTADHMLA

[4] = biological target: T4, SRSF6 (human, UniProt Q13247 1-344)
T4 construct: also called NP_006266.2
T4 sequence (looked up): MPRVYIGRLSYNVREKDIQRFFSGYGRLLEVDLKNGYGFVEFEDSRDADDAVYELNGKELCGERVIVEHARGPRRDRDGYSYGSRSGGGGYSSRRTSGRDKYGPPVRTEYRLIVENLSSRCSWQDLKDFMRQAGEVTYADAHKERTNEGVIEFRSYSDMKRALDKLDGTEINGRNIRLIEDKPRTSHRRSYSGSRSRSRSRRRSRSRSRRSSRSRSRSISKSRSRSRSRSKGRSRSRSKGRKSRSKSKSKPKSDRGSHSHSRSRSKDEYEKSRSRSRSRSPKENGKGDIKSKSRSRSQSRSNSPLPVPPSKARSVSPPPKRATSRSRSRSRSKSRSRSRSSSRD

co-IP mass spectrometry count [1]: 23
co-IP mass spectrometry count [2]: 0
B1: N-terminal FLAG tagged B3GNT2 (enzyme, human, UniProt Q9NY97 1-397, looked up)
chain: MSVGRRRIKLLGILMMANVFIYFIMEVSKSSSQEKNGKGEVIIPKEKFWKISTPPEAYWNREQEKLNRQYNPILSMLTNQTGEAGRLSNISHLNYCEPDLRVTSVVTGFNNLPDRFKDFLLYLRCRNYSLLIDQPDKCAKKPFLLLAIKSLTPHFARRQAIRESWGQESNAGNQTVVRVFLLGQTPPEDNHPDLSDMLKFESEKHQDILMWNYRDTFFNLSLKEVLFLRWVSTSCPDTEFVFKGDDDVFVNTHHILNYLNSLSKTKAKDLFIGDVIHNAGPHRDKKLKYYIPEVVYSGLYPPYAGGGGFLYSGHLALRLYHITDQVHLYPIDDVYTGMCLQKLGLVPEKHKGFRTFDIEEKNKNNICSYVDLMLVHSRKPQEMIDIWSQLQSAHLKC
notes: FLAG-tagged ORF overexpressed in cells; pulled down from lysate with mouse anti-FLAG; also called N-FLAG B3GNT2; N-term FLAG; not shown: N-terminal FLAG tag

co-IP/MS count, N-term FLAG [3]: 47
co-IP/MS count, N-term FLAG [4]: 6
B2: N-terminal FLAG tagged B3GNT2 (enzyme, human, UniProt Q9NY97 1-397, looked up)
chain: B1 chain
notes: FLAG-tagged ORF overexpressed in A375 cells; pulled down from the lysate with mouse anti-FLAG; also called N-FLAG B3GNT2; N-term FLAG; not shown: N-terminal FLAG tag
